The results in this text go back to patent US20210253698A1 (AFFIMED, published 2021).

A word on the Kd: it is a measure of binding affinity in units of concentration. A low value points to higher affinity. Usually EC50 stands for the concentration needed to bring the measured effect to its halfway point. Read a low EC50 as a more potent agent. A word on the koff: it is a measure of how fast the partners let go of each other. High values mean a short-lived complex, low ones a long-lived complex. The kon is the rate constant with which the complex forms. As usually defined, the EC50 (read off the curve) is the concentration that produces a half-maximal response.

For assay [1], the target named is human CD16A-158V and cynomolgus CD16 (value not tied to one of the two). Kind of assay: SPR, 50 nM analyte, receptor captured, 3 h dissociation.
The target in assay [2] is human CD16A (FcγRIIIA) on primary human NK cells (human) (UniProt P08637). Kind of assay: flow cytometry on primary human NK cells, 37 C, with 10 mg/mL polyclonal human IgG. In general terms: Flow cytometry measures light scatter and fluorescence of single cells or particles in a stream.
human CD16A (FcγRIIIA) on primary human NK cells (human), sequence (P08637 17-254): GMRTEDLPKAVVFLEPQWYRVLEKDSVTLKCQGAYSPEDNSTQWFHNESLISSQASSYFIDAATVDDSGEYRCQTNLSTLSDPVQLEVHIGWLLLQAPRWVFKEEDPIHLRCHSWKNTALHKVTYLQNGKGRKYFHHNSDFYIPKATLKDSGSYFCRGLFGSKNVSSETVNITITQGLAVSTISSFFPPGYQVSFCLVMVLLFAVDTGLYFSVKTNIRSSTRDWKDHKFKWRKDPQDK
For assay [3] the target is unchanged. Kind of assay: flow cytometry on primary human NK cells, 37 C, buffer.
Assay [4] deals with Human CD16A-158V ECD-monomeric Fc fusion antigen (human) (UniProt P08637). The assay can be described thus: SPR (Biacore T200), receptor-mono-Fc captured, 1:1 model. (SPR reads the build-up and loss of mass on a sensor chip optically.)
Human CD16A-158V ECD-monomeric Fc fusion antigen (human), sequence (P08637 17-208 F176V): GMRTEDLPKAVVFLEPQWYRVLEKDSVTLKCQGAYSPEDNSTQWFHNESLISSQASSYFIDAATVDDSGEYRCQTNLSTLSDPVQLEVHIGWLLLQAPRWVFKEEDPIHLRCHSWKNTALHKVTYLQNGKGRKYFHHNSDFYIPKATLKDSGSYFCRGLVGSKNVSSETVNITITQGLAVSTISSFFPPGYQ
For assay [5] the target is unchanged. The assay can be described thus: ELISA, CD16 antigen coated at 0.5 µg/mL (10 nM), competitor 8-10 nM 3G8 IgG. (An ELISA detects its analyte on a solid surface through an enzyme-linked reagent.)
Assay [6] shares this target. The assay can be described thus: ELISA, CD16 antigen coated at 0.5 µg/mL (10 nM), without competition.
Assay [7] concerns the target Human CD16A-158F ECD-monomeric Fc fusion antigen (human) (UniProt P08637). The assay can be described thus: ELISA, antigen coated at 1.5 µg/mL (32 nM), scFv titrated.
Assay [8] deals with Cynomolgus CD16A ECD-monomeric Fc fusion antigen (cynomolgus) (UniProt Q8SPW2). The assay is described as above.
Cynomolgus CD16A ECD-monomeric Fc fusion antigen (cynomolgus), sequence (Q8SPW2 17-208): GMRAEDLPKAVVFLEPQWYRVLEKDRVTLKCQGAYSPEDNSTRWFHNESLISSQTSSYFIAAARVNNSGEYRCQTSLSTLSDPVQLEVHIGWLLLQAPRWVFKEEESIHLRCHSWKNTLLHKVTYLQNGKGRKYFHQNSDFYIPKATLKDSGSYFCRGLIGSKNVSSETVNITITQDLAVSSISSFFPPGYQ
In assay [9] the target is Human CD16A-158V ECD-monomeric Fc fusion antigen (human) (UniProt P08637). The description is as above.
Assay [10] concerns the target cynomolgus CD16A (SEQ ID NO:49) (cynomolgus, UniProt Q8SPW2 17-208). Kind of assay: SPR (Biacore T200), purified scFv, monovalent binding affinity; cynomolgus CD16A.
Assay [11] deals with human CD16A (SEQ ID NO:48) (human, UniProt P08637 17-208). The assay can be described thus: SPR (Biacore T200), purified scFv, monovalent binding affinity; human CD16A.
human CD16A (SEQ ID NO:48), sequence (P08637 17-208 limits assumed): as the sequence (P08637 17-208 F176V) above, with V160F counted along it
Assay [12] addresses T1, B-cell maturation antigen (BCMA) (human, UniProt Q02223 1-54, limits assumed).
T1 construct: also called CD269; TNFRSF17
T1 sequence (looked up): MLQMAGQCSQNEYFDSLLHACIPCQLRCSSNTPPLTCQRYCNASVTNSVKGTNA
Kind of assay: flow cytometry on Raji cells (low BCMA), APC-A histogram, % of Max.

In assay [13] the target is T2, Human CD16A-158F ECD-monomeric Fc fusion antigen (human, UniProt P08637 17-208, biotinylated in SPR).
T2 construct: extracellular domain; not shown: monomeric Fc (Ying et al. 2012) fusion partner, Avi tag in SPR
T2 sequence (P08637 17-208): as the sequence (P08637 17-208 F176V) above, with V160F counted along it
The assay can be described thus: SPR (Biacore T200), receptor-mono-Fc captured, 1:1 model. The procedure: IgGs and scFvs were prepared in HBS-P+buffer at indicated concentration series and are injected to reference surfaces (Fc 1, Fc 3) and receptor captured surface (Fc 2, Fc 4) at a flow rate of 40 μL/min (association time 180 s, dissociation time 300 s). […] Data were referenced by subtraction of signals from reference surfaces (Fc 2-1, Fc 4-3) and zero concentration (buffer control) signals. Kinetic evaluation was performed by fitting data to a 1:1 binding model (Rmax and RI locally fitted) using Biacore T200 Evaluation Software (v3.1). […] Referenced curves were normalized to each curves maximum and overlaid. For investigation of receptor retention via qualitative dissociation phase comparison of monovalent and bivalent CD16A-binding antibodies or ligands, biotinylated mono-Fc(silent)-Avi-tagged receptors were prepared in HBS-P+and captured (human CD16A-158V approx. 160RU, cynomolgus CD16 approx. 320 RU) in flow cells Fc 2 and […].

Assay [14] addresses T3, Human CD16A-158V ECD-monomeric Fc fusion antigen (human, UniProt P08637 17-208).
T3 construct: extracellular domain; also called CD16A-158V ECD-Fc fusion antigen; biotinylated mono-Fc(silent)-Avi-tagged receptor; not shown: monomeric Fc (Ying et al. 2012) fusion partner, Avi tag in SPR
The assay can be described thus: SPR multi-cycle kinetics (Biacore T200), 4-fold dilution series over captured human CD16A-158V. As to the method: IgGs and scFvs were prepared in HBS-P+buffer at indicated concentration series and are injected to reference surfaces (Fc 1, Fc 3) and receptor captured surface (Fc 2, Fc 4) at a flow rate of 40 μL/min (association time 180 s, dissociation time 300 s). […] Data were referenced by subtraction of signals from reference surfaces (Fc 2-1, Fc 4-3) and zero concentration (buffer control) signals. Kinetic evaluation was performed by fitting data to a 1:1 binding model (Rmax and RI locally fitted) using Biacore T200 Evaluation Software (v3.1).

For assay [15], the target named is T4, human CD16A (FcγRIIIA) on primary human NK cells (human, UniProt P08637 17-254).
T4 construct: whole, on cells
T4 sequence (P08637 17-254): as the sequence (P08637 17-254) above
Kind of assay: flow cytometry on freshly prepared human NK cells, DyLight650-labelled antibody, in the presence of 10 mg/mL SCIG (Hizentra), delta gMFI.
Description: Fresh prepared human NK cells were pre-incubated for 1-hours at 37 C with and without 10 mg/mL of SCIG (Hizentra), then stained with DyLight650 labeled anti-AFM26/CD16a at indicted concentrations. […] In FIGS. 40C and 40D, human NK cells were isolated from a healthy human blood donor. NK (FIG. 40D) and MM.1S cells (FIG. 40C) were preincubated separately in 50% human autologous serum for 2 hours prior to assay setup. NK cells were co-cultured with MM.15 tumor cell line at an approximate E:T ration of 5, and exposed to 10-fold serial diluted test articles from 0.1-100nM for approximately 20 hours at 37 C with 5% CO₂. Antibody staining with CD138 and CD56 followed by FACS were used to monitor cytotoxicity of MM.15 target cells and NK survival. Data were analyzed with the software programs FlowJo and GraphPad Prism 6.

Assay [16] has as its target T1, B-cell maturation antigen (BCMA). Kind of assay: not stated; binding to BCMA.
The target in the next assay is T5, CD16A (human, UniProt P08637 17-208).
T5 construct: also called CD16A antigen; FcγRIIIA
T5 sequence (P08637 17-208 limits assumed): as the sequence (P08637 17-208 F176V) above, with V160F counted along it
Kind of assay: not stated; binding to CD16A.

Human CD16A-158F ECD-monomeric Fc fusion antigen (human), sequence (P08637 17-208): as the sequence (P08637 17-208 F176V) above, with V160F counted along it
T3 sequence (P08637 17-208 F176V): as the sequence (P08637 17-208 F176V) above
cynomolgus CD16A (SEQ ID NO:49), sequence (Q8SPW2 17-208 limits assumed): as the sequence (Q8SPW2 17-208) above

The molecule “IgG1 Fc (enhanced, S239D/I332E) (from UniProt P01857 1-330) (antibody)” yielded a percent remaining on the receptor after 3 h of dissociation in assay [1] of 10%.
scFv 3G8: the figures for the Kd in assay [2], in [3] and in assay [4] were 64.6 nM, 3.8 nM and 8.6 nM, respectively. Besides, the EC50 in assay [5] was determined as 19.7 nM; in [6] it was 0.9 nM; in assay [7], 0.58 nM; in assay [8], 0.87 nM; in assay [9] it was 0.33 nM.

B1: anti-CD16A Fv of SEQ ID NOs:1 and 2 (scFv)
chain 1: QVQLVQSGAEVKKPGESLKVSCKASGYTFTSYYMHWVRQAPGQGLEWMGIINPSGGSTSYAQKFQGRVTMTRDTSTSTVYMELSSLRSEDTAVYYCARGSAYYYDFADYWGQGTLVTVSS
chain 2: SYVLTQPSSVSVAPGQTATISCGGHNIGSKNVHWYQQRPGQSPVLVIYQDNKRPSGIPERFSGSNSGNTATLTISGTQAMDEADYYCQVWDNYSVLFGGGTKLTVL
notes: Measured as purified scFv
As to B1, the Kd in assay [10] worked out at 132 nM; in assay [11], 40.5 nM.

B2: CD16A/BCMA antibody II (bispecific antibody)
TandAb polypeptide VH BCMA-VL CD16A-VH CD16A-VL BCMA: EVQLLESGGGLVQPGGSLRLSCAASGFTFSNYDMAWVRQAPGKGLEWVSSISTRGDITSYRDSVKGRFTISRDNSKNTLYLQMNSLRAEDTAVYYCARQDYYTDYMGFAYWGQGTLVTVSSGGSGGSGGSGGSSYVLTQPSSVSVAPGQTATISCGGHNIGSKNVHWYQQRPGQSPVLVIYQDNKRPSGIPERFSGSNSGNTATLTISGTQAMDEADYYCQVWDNYSVLFGGGTKLTVLGGSQVQLVQSGAEVKKPGESLKVSCKASGYTFTSYYMHWVRQAPGQGLEWMGAIEPMYGSTSYAQKFQGRVTMTRDTSTSTVYMELSSLRSEDTAVYYCARGSAYYYDFADYWGQGTLVTVSSGGSGGSGGSGGSAIQMTQSPSSLSASVGDRVTITCRASEDIYNGLAWYQQKPGKAPKLLIYGASSLQDGVPSRFSGSGSGTEFTLTISSLQPEDEATYYCAGPHKYPLTFGGGTKVEIK
notes: also called Fc-less TandAb BCMA/CD16A
In the case of B2, the binding result in assay [12] is on record as “binds”.

B3: CD16A/BCMA antibody III (bispecific antibody)
chain 1: DKTHTCPPCPAPEFEGGPSVFLFPPKPKDTLMISRTPEVTCVVVAVSHEDPEVKFNWYVDGVEVHNAKTKPREEQYNSTYRVVSVLTVLHQDWLNGKEYKCKVSNKALPAPIEKTISKAKGQPREPQVYTLPPSREEMTKNQVSLTCLVKGFYPSDIAVEWESNGQPENNYKTTPPVLDSDGSFFLTSKLTVDKSRWQQGNVFSCSVMHEALHNHYTQKSLSLSPGGGGGSGGGGSSYVLTQPSSVSVAPGQTATISCGGHNIGSKNVHWYQQRPGQSPVLVIYQDNKRPSGIPERFSGSNSGNTATLTISGTQAMDEADYYCQVWDNYSVLFGGGTKLTVLGGSGGSQVQLVQSGAEVKKPGESLKVSCKASGYTFTSYYMHWVRQAPGQGLEWMGAIEPMYGSTSYAQKFQGRVTMTRDTSTSTVYMELSSLRSEDTAVYYCARGSAYYYDFADYWGQGTLVTVSSGGSGGSGGSGGSGGSGGSSYVLTQPSSVSVAPGQTATISCGGHNIGSKNVHWYQQRPGQSPVLVIYQDNKRPSGIPERFSGSNSGNTATLTISGTQAMDEADYYCQVWDNYSVLFGGGTKLTVLGGSGGSQVQLVQSGAEVKKPGESLKVSCKASGYTFTSYYMHWVRQAPGQGLEWMGAIEPMYGSTSYAQKFQGRVTMTRDTSTSTVYMELSSLRSEDTAVYYCARGSAYYYDFADYWGQGTLVTVSSAAAGSHHHHHH
chain 2: EVQLLESGGGLVQPGGSLRLSCAASGFTFSNYDMAWVRQAPGKGLEWVSSISTRGDITSYRDSVKGRFTISRDNSKNTLYLQMNSLRAEDTAVYYCARQDYYTDYMGFAYWGQGTLVTVSSGGGGSGGGGSGGGGSAIQMTQSPSSLSASVGDRVTITCRASEDIYNGLAWYQQKPGKAPKLLIYGASSLQDGVPSRFSGSGSGTEFTLTISSLQPEDEATYYCAGPHKYPLTFGGGTKVEIKDKTHTCPPCPAPEFEGGPSVFLFPPKPKDTLMISRTPEVTCVVVAVSHEDPEVKFNWYVDGVEVHNAKTKPREEQYNSTYRVVSVLTVLHQDWLNGKEYKCKVSNKALPAPIEKTISKAKGQPREPQVYTLPPSREEMTKNQVSLYCLVKGFYPSDIAVEWESNGQPENNYKTTPPVLDSDGSFFLYSKLTVDKSRWQQGNVFSCSVMHEALHNHYTQKSLSLSPG
notes: also called KiH-scDb-Fc BCMA/CD16a
Consider B3, for which, in assay [12], the binding result is recorded as “binds”.

B4: IgG1 Fc (silenced, L234F/L235E/D265A) (antibody)
heavy: ASTKGPSVFPLAPSSKSTSGGTAALGCLVKDYFPEPVTVSWNSGALTSGVHTFPAVLQSSGLYSLSSVVTVPSSSLGTQTYICNVNHKPSNTKVDKKVEPKSCDKTHTCPPCPAPEFEGGPSVFLFPPKPKDTLMISRTPEVTCVVVAVSHEDPEVKFNWYVDGVEVHNAKTKPREEQYNSTYRVVSVLTVLHQDWLNGKEYKCKVSNKALPAPIEKTISKAKGQPREPQVYTLPPSRDELTKNQVSLTCLVKGFYPSDIAVEWESNGQPENNYKTTPPVLDSDGSFFLYSKLTVDKSRWQQGNVFSCSVMHEALHNHYTQKSLSLSPGK
notes: also called human IgG1 Fc-silenced
Regarding B4, in assay [13], the Kd turned out to be 34700 nM, the koff was 0.71 s⁻¹ and the kon was determined as 20400 M⁻¹ s⁻¹. Further, in assay [14], the binding result was “no binding”.

B5: CD16A/BCMA antibody I (bispecific antibody, human IgG1, kappa)
heavy: EVQLLESGGGLVQPGGSLRLSCAASGFTFSNYDMAWVRQAPGKGLEWVSSISTRGDITSYRDSVKGRFTISRDNSKNTLYLQMNSLRAEDTAVYYCARQDYYTDYMGFAYWGQGTLVTVSSASTKGPSVFPLAPSSKSTSGGTAALGCLVKDYFPEPVTVSWNSGALTSGVHTFPAVLQSSGLYSLSSVVTVPSSSLGTQTYICNVNHKPSNTKVDKKVEPKSCDKTHTCPPCPAPEFEGGPSVFLFPPKPKDTLMISRTPEVTCVVVAVSHEDPEVKFNWYVDGVEVHNAKTKPREEQYNSTYRVVSVLTVLHQDWLNGKEYKCKVSNKALPAPIEKTISKAKGQPREPQVYTLPPSREEMTKNQVSLTCLVKGFYPSDIAVEWESNGQPENNYKTTPPVLDSDGSFFLYSKLTVDKSRWQQGNVFSCSVMHEALHNHYTQKSLSLSPGGGGGSGGGGSGGGGSGGGGSGGGGSGGGGSSYVLTQPSSVSVAPGQTATISCGGHNIGSKNVHWYQQRPGQSPVLVIYQDNKRPSGIPERFSGSNSGNTATLTISGTQAMDEADYYCQVWDNYSVLFGGGTKLTVLGGSGGSGGSGGSGGSGGSGGSQVQLVQSGAEVKKPGESLKVSCKASGYTFTSYYMHWVRQAPGQGLEWMGAIEPMYGSTSYAQKFQGRVTMTRDTSTSTVYMELSSLRSEDTAVYYCARGSAYYYDFADYWGQGTLVTVSS
light: AIQMTQSPSSLSASVGDRVTITCRASEDIYNGLAWYQQKPGKAPKLLIYGASSLQDGVPSRFSGSGSGTEFTLTISSLQPEDEATYYCAGPHKYPLTFGGGTKVEIKRTVAAPSVFIFPPSDEQLKSGTASVVCLLNNFYPREAKVQWKVDNALQSGNSQESVTEQDSKDSTYSLSSTLTLSKADYEKHKVYACEVTHQGLSSPVTKSFNRGEC
notes: also called scFv-IgAb I BCMA/CD16a; BCMA/CD16A antibody I
On to B5, for which, in assay [15], the “EC50 (read off the curve)” value is approximately 40 nM. In addition, the Kd in assay [16] is approximately 2 nM; in the assay with CD16A, approximately 16 nM.
